Measured values reported in US20180355061A1 (Janssen / Centocor, published 2018).
Residue numbers refer to the chain shown, from its start. Numbers in names are those of the source. Values belong to the binder of their own block, whether it stands above or below them.

Key:
[1] = molecular target: T1, human PD-1 (soluble analyte in SPR) (human, UniProt Q15116 25-170, limits assumed); test: SPR (ProteOn XPR36), mAb captured on anti-human IgG Fc, PD-1 as analyte, 25 C
T1 construct: also called CD279; PDCD1
T1 sequence (Q15116 25-170 limits assumed): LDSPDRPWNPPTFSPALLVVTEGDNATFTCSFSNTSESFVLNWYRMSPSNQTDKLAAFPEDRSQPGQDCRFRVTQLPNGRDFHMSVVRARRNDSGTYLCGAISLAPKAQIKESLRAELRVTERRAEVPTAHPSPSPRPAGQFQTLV
Description: (§1) Affinity measurements were performed using a ProteOn XPR36 system (BioRad). […] Approximately 5000 RU (response units) of mAbs were immobilized. The kinetic experiments were performed at 25° C. in running buffer (DPBS+0.01% P20+100 μg/mL BSA). To perform kinetic experiments, 200 RU of mAbs were captured followed by injections of analytes (human and cyno PD-1) at concentrations ranging from 1.563 nM to 400 nM (in a […] serial dilution). The association phase was monitored for 3 minutes at 50 μL/min, then followed by 10 or 15 minutes of buffer flow (dissociation phase). The chip surface was regenerated with two 18 second pulses of 100 mM H₃PO₄ (Sigma, Cat #7961) at 100 μL/min.
(§2) The collected data were processed using ProteOn Manager software. First, the data was corrected for background using inter-spots. Then, double reference subtraction of the data was performed by using the buffer injection for analyte injections. The kinetic analysis of the data was performed using a Langmuir 1:1 binding model. The result for each mAb was reported in the format of ka (On-rate), kd (Off-rate) and KD (equilibrium dissociation constant).
Affinity of the parental and humanized antibodies to PD-1 was measured using SPR as described in Example 1.

[2] = molecular target: T1, human PD-1 (soluble analyte in SPR); test: SPR (ProteOn XPR36), mAb from crude supernatant captured on anti-human IgG Fc, PD-1 as analyte, 25 C
[3] = molecular target: T2, cyno PD-1 (soluble analyte in SPR) (cyno); test: SPR (ProteOn XPR36), mAb captured on anti-human IgG Fc, cyno PD-1 as analyte, 25 C
T2 construct: also called cynomolgus PD-1
Description: as §1, §2
(§3) Affinity of the antibodies to human and cyno PD-1 was measured using SPR as described in Example 1.

[4] = molecular target: T1, human PD-1 (soluble analyte in SPR); test: SPR (ProteOn XPR36), mAb captured on anti-human IgG Fc, human PD-1 as analyte, 25 C
Description: as §1, §2, §3

Kd [1]: 52.4 nM | koff [1]: 0.0102 s⁻¹ | kon [1]: 195000 M⁻¹ s⁻¹
B1: PD1B506 (antibody, human IgG1, kappa, V domains shown)
VH: QVQLQQPGAELVKPGASVKLSCKASGYTFTTYWMHWVKQRPGQGLEWIGEINPNNGGINYNEKFKKKATLTVDKSSSTAYMQLSSLTSEDSAVYYCTIDYYDYGGYWGQGTTLTVSS
VL: DIVMTQSQKFMSTSVRDRVSVTCKASQNVGTNVAWYQQKPGQSPKALIYSASYRYSGVPDRFTGSGSGTDFTLTITNVQSEDLAEYFCQQYNIYPYTFGSGTKLEMKR
notes: Parental mouse antibody cloned as chimeric human IgG1; Bin 5; also called VH PD1H90; VL PD1L28

Kd [2]: 24 nM | koff [2]: 0.00843 s⁻¹ | kon [2]: 351000 M⁻¹ s⁻¹
B2: PD1B845 (antibody, human IgG1, kappa, V domains shown)
VH: QVQLVQSGAEVKKPGASVKVSCKASGYTFTTYWMHWVRQAPGQGLEWMGEINPNNAGINYAQKFQGRVTLTVDKSISTAYMELSRLRSDDTAVYYCTIDYYDYGGYWGQGTLVTVSS
VL: DIQMTQSPSSLSASVGDRVTITCKASQNVGTNVAWYQQKPEKAPKSLIYSASYRYSGVPSRFSGSGSGTDFTLTISSLQPEDFATYYCQQYNIYPYTFGQGTKLEIKR
notes: G56A variant of PD1B750, IgG1; tested as crude supernatant in SPR; also called VH PD1H399; VL PD1L470

Kd [2]: 39.2 nM | koff [2]: 0.00991 s⁻¹ | kon [2]: 253000 M⁻¹ s⁻¹
B3: PD1B848 (antibody, human IgG1, kappa, V domains shown)
VH: B2 VH with N55K, A56G
VL: B2 VL
notes: N55K variant of PD1B750, IgG1; tested as crude supernatant in SPR; also called VH PD1H402; VL PD1L470

Kd [2]: 23 nM | koff [2]: 0.00719 s⁻¹ | kon [2]: 313000 M⁻¹ s⁻¹
B4: PD1B850 (antibody, human IgG1, kappa, V domains shown)
VH: B2 VH with A56I
VL: B2 VL
notes: G56I variant of PD1B750, IgG1; tested as crude supernatant in SPR; also called VH PD1H404; VL PD1L470

Kd [1]: 47.1 nM | koff [1]: 0.00883 s⁻¹ | kon [1]: 188000 M⁻¹ s⁻¹
B5: PD1B849 (antibody, human IgG1, kappa, V domains shown)
VH: B2 VH with N55E, A56G
VL: B2 VL
notes: N55E variant of PD1B750, IgG1; also called VH PD1H403; VL PD1L470

Kd [2]: 24.6 nM | koff [2]: 0.00744 s⁻¹ | kon [2]: 303000 M⁻¹ s⁻¹
B6: PD1B847 (antibody, human IgG1, kappa, V domains shown)
VH: B2 VH with N55Q, A56G
VL: B2 VL
notes: N55Q variant of PD1B750, IgG1; tested as crude supernatant in SPR; also called VH PD1H401; VL PD1L470

Kd [2]: 21.6 nM | koff [2]: 0.00753 s⁻¹ | kon [2]: 349000 M⁻¹ s⁻¹
B7: PD1B846 (antibody, human IgG1, kappa, V domains shown)
VH: B2 VH with N55D
VL: B2 VL
notes: N55D, G56A variant of PD1B750, IgG1; tested as crude supernatant in SPR; also called VH PD1H400; VL PD1L470

Kd [1]: 29.1 nM | koff [1]: 0.00236 s⁻¹ | kon [1]: 81100 M⁻¹ s⁻¹
B8: PD1B505 (antibody, human IgG1, kappa, V domains shown)
VH: DVQLQESGPELKKPGETVKISCKASGYTFTDYSMHWVKQAPGKGLKWMGWINIETGEPTYADDFKGRFAFSLETSASTAYLQINNLKNEDTATYFCARDYYGTYFYAMDYWGQGTTLTVSS
VL: QIVLTQSPAIMSASLGERVTMTCTASSSVSSSYLHWYQQKPGSSPKLWIYSTSNLASGVPARFSGSGSGTSYSLTISSMEAEDAATYYCHQYHRSPLTFGAGTKLELKR
notes: Parental mouse antibody cloned as chimeric human IgG1; Bin 1; also called VH PD1H93; VL PD1L30

Kd [3]: 6.45 nM | koff [3]: 0.00129 s⁻¹ | kon [3]: 200000 M⁻¹ s⁻¹ | Kd [4]: 0.911 nM | koff [4]: 0.000142 s⁻¹ | kon [4]: 156000 M⁻¹ s⁻¹
B9: PD1B1085 (antibody, human IgG1, kappa, V domains shown)
VH: QVQLVQSGSELKKPGASVKVSCKASGYTFTDYSMHWVRQAPGQGLEWMGWINIETGYPTYAQGFTGRFVFSLDTSVSTAYLQISSLKAEDTAVYFCARDYYGTYFYAMDYWGQGTLVTVSS
VL: EIVLTQSPATLSLSPGERATLSCTASSSVSSSYLHWYQQKPGLAPRLLIYSTSNLASGIPDRFSGSGSGTDYTLTISRLEPEDFAVYYCHQYHRSPLTFGQGTKLEIKR
notes: also called VH PD1H585; VL PD1L469

Kd [3]: 90 nM | koff [3]: 0.00839 s⁻¹ | kon [3]: 93200 M⁻¹ s⁻¹ | Kd [4]: 8.09 nM | koff [4]: 0.000474 s⁻¹ | kon [4]: 58600 M⁻¹ s⁻¹
B10: PD1B1089 (antibody, human IgG1, kappa, V domains shown)
VH: B9 VH with Y57E
VL: B9 VL with S30P
notes: also called VH PD1H405; VL PD1L652

Kd [3]: 11.6 nM | koff [3]: 0.00247 s⁻¹ | kon [3]: 212000 M⁻¹ s⁻¹ | Kd [4]: 1.44 nM | koff [4]: 0.000239 s⁻¹ | kon [4]: 166000 M⁻¹ s⁻¹
B11: PD1B1087 (antibody, human IgG1, kappa, V domains shown)
VH: B9 VH with Y57W
VL: B9 VL
notes: also called VH PD1H587; VL PD1L469

Kd [3]: 4.23 nM | koff [3]: 0.000781 s⁻¹ | kon [3]: 185000 M⁻¹ s⁻¹ | Kd [4]: 0.471 nM | koff [4]: 7.12e-05 s⁻¹ | kon [4]: 151000 M⁻¹ s⁻¹
B12: PD1B1095 (antibody, human IgG1, kappa, V domains shown)
VH: B9 VH with Y57W
VL: B9 VL with S30P
notes: also called VH PD1H587; VL PD1L652

Kd [3]: 2.18 nM | koff [3]: 0.000368 s⁻¹ | kon [3]: 169000 M⁻¹ s⁻¹ | Kd [4]: 0.349 nM | koff [4]: 4.36e-05 s⁻¹ | kon [4]: 125000 M⁻¹ s⁻¹
B13: PD1B1093 (antibody, human IgG1, kappa, V domains shown)
VH: B9 VH
VL: B9 VL with S30P
notes: also called VH PD1H585; VL PD1L652

Kd [3]: 3.18 nM | koff [3]: 0.000411 s⁻¹ | kon [3]: 129000 M⁻¹ s⁻¹ | Kd [4]: 0.214 nM | koff [4]: 3e-05 s⁻¹ | kon [4]: 140000 M⁻¹ s⁻¹
B14: PD1B1092 (antibody, human IgG1, kappa, V domains shown)
VH: B9 VH with Y57W
VL: B9 VL with V29F
notes: also called VH PD1H587; VL PD1L651

Kd [3]: 9.32 nM | koff [3]: 0.000924 s⁻¹ | kon [3]: 99100 M⁻¹ s⁻¹ | Kd [4]: 0.83 nM | koff [4]: 6.44e-05 s⁻¹ | kon [4]: 77700 M⁻¹ s⁻¹
B15: PD1B1091 (antibody, human IgG1, kappa, V domains shown)
VH: B9 VH with Y57H
VL: B9 VL with V29F
notes: also called VH PD1H586; VL PD1L651

Kd [3]: 72.4 nM | koff [3]: 0.00479 s⁻¹ | kon [3]: 66100 M⁻¹ s⁻¹ | Kd [4]: 10.9 nM | koff [4]: 0.000341 s⁻¹ | kon [4]: 31300 M⁻¹ s⁻¹
B16: PD1B1088 (antibody, human IgG1, kappa, V domains shown)
VH: B9 VH with Y57E
VL: B9 VL with V29F
notes: also called VH PD1H405; VL PD1L651
